In test [1] the target is HLA-DR1 with a His→Asn substitution at position β81 (human). Kind of test: fluorescence polarisation. (In fluorescence polarisation assays a small probe gives low polarisation when free and higher when bound to something large.)
Test [2] shares this target.
The target in test [3] is β81mut (HLA-DR1 with His→Asn substitution at position β81) (Homo sapiens, UniProt P01903+P01911, A100R/D57E/F55L/F60I/F76Y/H110N/I96L/L162R/M171V/P40L/Q125E/R42F/V115G/Y59C). In words: Fluorescence polarization dissociation measurements, β81mut. It is filed as binding. The conditions noted are these: FP peptide release, 37 °C, pH 5.
For a further test, the system named is wtDR1. In words: Fluorescence polarization dissociation measurements, wtDR1. It is filed as binding, human. The conditions noted are these: FP peptide release, 37 °C, pH 5.

In turn, “fluorescein-labelled HA_(306-319) peptide” registered a t1/2 in test [1] of 77.3 h.
HA_(306-319) peptide showed a dissociation constant (Kd) in test [2] of 50.6 nM. This counts as double-digit nanomolar.
For the substance “P2,3 SD: HA306-319-derived peptide substituted at P2 and P3 (GPKYSDQNTLKLAT)”, the “Stable binding allowing off-rate measurements, β81mut” value in test [3] was “this was not possible”. Besides, the “Stable binding allowing off-rate measurements, wtDR1” value in the test with wtDR1 is “could bind in a stable fashion”.
The corresponding values for “P3,10 DG: HA306-319-derived peptide substituted at P3 and P10 (GPKYVDQNTLKLGT)” are “this was not possible” and “could bind in a stable fashion”.

Broadly, the Kd is the free concentration of one partner at which half of the binding sites on the other are occupied at equilibrium, for simple one-to-one binding. A high value points to weaker binding.

The values are drawn from PMC3349339 (Journal of Molecular Biology, 2012).
